Laboratory results from patent publication US20050008573A1, “Peptides conjugates, their derivatives with metal complexes and use thereof for magnetic resonance imaging (mri)” (priority 2001, published 2005).

Settings: gadolinium complex

gadolinium complex of (DTPAGLU)4(Lys)2Lys-Gly-Vapreotide [Example 3]
relaxivity: 15 mM⁻¹ s⁻¹
